Test results published in the nanobody polyreactivity screen of Harvey et al. (2022).

Assay: yeast display, Sf9 membrane polyspecificity reagent, FACS + sequencing; frameworks hold sequencing errors
Method in brief: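 A synthetic nanobody library was expressed on Saccharomyces cerevisiae BJ5465 by galactose induction for 36–48 hours. The library was stained for 1 hour at 4 °C with 10% biotinylated, detergent-solubilized Sf9 membrane reagent and enriched with streptavidin microbeads before FACS. Low and high (top ~1%) gates were set on anti-HA fluorescence for expression and streptavidin fluorescence for reagent binding, and each polyreactivity label reflects the gate of origin.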

Row | Sequence | polyreactivity (PSR sort gate)
1 | QVQLVESGGGLVQAGGSLRLSCAASGIIFDVYAMGWYRPAPGKERELVAAISYGGGTTYYADSVKGRFTISRDNAKNTVYLQMNSLKPEDTAVYYCAADSYRSIGDDYWGQGTQVTVSS | high polyreactivity
2 | QVQLVESGGGLVQAGGSLRLSCAASGIIFDVYAMGWYRQAPGKEREFVAAITTGGSTNYADSVKGRFTISRDNAKNSVYLQMNSLTPEDTAVYYCNADWDVGYGYWGQGTQVTVSS | low polyreactivity
3 | QVQLVESGGGLVQAGGSLRLSCAASGIIFDVYAMGWYRQAPGKERELVAAISKRGGRTYYADSVKGRFTISRDNAKNTVYLQMNSLKPEDTAVYYCAADGQYKHFDYWGQGTQVTVSS | high polyreactivity
4 | QVQLVESGGGLVQAGGSLRLSCAASGIIFDYYAMGWYRQAPGKERELVAGISQRGGSTYYADSVKGRFTISRDNAKITVYLQMNSLKPEDTAVYYWAAYTRSCEGHRGGYWGQGTQVTVSS | high polyreactivity
5 | QVQLVESGGGLVQAGGSLRLSCAASGIIFDYYAMGWYRQAPGKVREFVATITSGGSTTYADSVKGRFTISRDNAKNTVYIEMNSLKPEDTAVYYCAARTYWFPDIYPGLGRDYWGQGTQVTVSS | low polyreactivity
6 | QVQLVESGGGLVQAGGSLRLSCAASGIIFEGNAMGWYRQAPGKERELVAAISTSTGRTYYADSVKGRFTISRDNAKNTVYLQMNSLKPEDTAVYYCAAYIRTTRFDYWGQGTQVTVSS | high polyreactivity
7 | QVQLVESGGGLVQAGGSLRLSCAASGIIFEGNVMGWYRHAPAKERELVAAITSDTSTNYADSVKGRFTISRDNAKNTVYLQMNSLKPVDTAVYYFNAVICTDYYYSGTAEFYYWGQGTQVTVSS | low polyreactivity
8 | QVQLVESGGGLVQAGGSLRLSCAASGIIFERYAMGWYRQAPGKERELVAAISKGGGSRTYYADSVQGRFTISRDTAKNTVYLQMNSLKPEDTAVYYCNADIWYGDMDYWGQGTQVTVSS | high polyreactivity
9 | QVQLVESGGGLVQAGGSLRLSCAASGIIFEYYTIGWYRQATGKERELVASITYDGDSTYYADSVKGRFTISRDNAKNTVYLQMNSLKPEDTAVYYCAADYYSVYSSFGHYYWGQGTQVTVSS | low polyreactivity
10 | QVQLVESGGGLVQAGGSLRLSCAASGIIFFIYAMGWYRQAPGKERELVARISIGGSTYYADSVKGRFTISRDNAKNTVYLQMNSLKPEDTAVYYCAARCGGLRATYHYWGQGTQVTVSS | low polyreactivity
11 | QVQLVESGGGLVQAGGSLRLSCAASGIIFFKYAMGWYRQAPGKERELVARISWSGSTYADSVKGRFTISRDNAKNTVYLQMNSLKPEDTAVYYCAADSFTITADSDDYWGQGTQVTVSS | low polyreactivity
12 | QVQLVESGGGLVQAGGSLRLSCAASGIIFFPYAMVWYRQAPGKEREFVAAITSRGGSTYYADSVKGRFTISRDNAKNTVYLQMNSLNPEDTAVYYFAADGWLWSFTGDGWWFDYWGQGTQVTVSS | low polyreactivity
13 | QVQLVESGGGLVQAGGSLRLSCAASGIIFGDNAMGWYRQAPGKERELVAAIDSGGSTYYADSVKGRFTISRDNAKNTVYLQMNSLKPEDTAVYYCNAVTAFGYSYGGWDYDQYNYWGQGTQVTVSS | low polyreactivity
14 | QVQLVESGGGLVQAGGSLRLSCAASGIIFGDNAMGWYRQAPGKERELVAAISSGGITYYADSVKGRFTISRDNAKNTVYLQMNSLKPEDTAVYYCAAGYYDFWYDYWGQGTQVTVSS | low polyreactivity
15 | QVQLVESGGGLVQAGGSLRLSCAASGIIFGDNAMGWYRQATGKERELVAAIDYGDGSTYYADSVKGRFTISRDNENNTVYLQMNRLKPEDTAVYYCNADDGGPGVVLPTKEYDYWGQGTQVTVSS | low polyreactivity
16 | QVQLVESGGGLVQAGGSLRLSCAASGIIFGENAMGWYRQAPGKERELVAAINSVGSTYYADSVKGRFTISRDNAKNTVYLQMNSLKPEDTAVYYCAAESWFLRWYRYDYWGQGTQVTVSS | low polyreactivity
17 | QVQLVESGGGLVQAGGSLRLSCAASGIIFGFNAMRWYRQAPGKEREFVADITYSGGSTYYADSVKGRFTISRDNAKNTVYLHMNSLKPEDTAVYYCAADEVSFWGYIYDYWGQGTQVTVSS | high polyreactivity
18 | QVQLVESGGGLVQAGGSLRLSCAASGIIFGFYAMGWYRQAPGKERELVAAITNDGGITNYADSVKGRFTISRDNAMNTVYLQMNSLKPEDTAVYYCAKDQWPWVRDSLYTLRYDYWGQGTQVTVSS | low polyreactivity
19 | QVQLVESGGGLVQAGGSLRLSCAASGIIFGGYDMGWYRQAPGKERELVAAISWSGGSTYYADSVKGRFTISRDNAKNTVYLQMNSLKPEDTAVYYCNAVGRRNVDSSLNDYWGQGTQVTVSS | low polyreactivity
20 | QVQLVESGGGLVQAGGSLRLSCAASGIIFGHYAMGWYRQAPGKERELVARITYSGTRTYYADSVKGRFTISRDNAKNTVYLQMNSLKPEDTAVYYCAAGYAYPRWVTAGNNWGQGTQVTVSS | high polyreactivity
